Assay results as given in article PMC2728405.

Target: microtubules preformed from purified tubulin (taxol-stabilized) (UniProt Q6B856)
Experiment: co-sedimentation

- stoichiometry N (α-β tubulin heterodimers per Dp260): 1.4
Substance: purified recombinant Flag-tagged Dp260
